Here are results for two molecules from article PMC4161475, “EhCoactosin Stabilizes Actin Filaments in the Protist Parasite Entamoeba histolytica” (PLoS Pathogens, 2014).

The target in the experiment is G-actin (rabbit skeletal muscle actin, monomeric) (rabbit, UniProt P68135 1-377). Nature of the experiment: ELISA; solid-phase assay: wells coated with 5 µM G-actin in PBS, 5 µM protein added, detected with anti-EhCoactosin antibody; in the presence of Ca2+ (2 mM) or EGTA (5 mM). The conditions noted are these: both partners purified. (ELISA stands for enzyme-linked immunosorbent assay.)

B1: EhCoactosin with the N-terminal seven amino acid residues deleted (domain or fragment)
chain: EVAGPVAEVIDDKNEEVEFVVFGVQTQPNKLVVDAKGKGGLEEVKAALKEDALQFAYYRTISGDEESKRVKFVFISWAGEGIKKPKLRAVMSILKGDVKNVINNFHIELHATSLDDLVEDEIAAKIKKAGGADYSFNTTSN
notes: Coactosin of Entamoeba histolytica, NCBI XP_650926.1, 7 residues deleted from the N terminus; The tag is told for the EhCoactosin gene in pET28b; also called EhCoΔN; N-terminal truncation mutant; source: E. coli BL21 (DE3), purified (Nickel-NTA, Superdex 75 gel filtration)
As to B1, the “fold increase in binding against WT” value was 2 fold.

B2: EhCoactosin, full-length wild type (natural protein)
chain: MSGFDLSEVAGPVAEVIDDKNEEVEFVVFGVQTQPNKLVVDAKGKGGLEEVKAALKEDALQFAYYRTISGDEESKRVKFVFISWAGEGIKKPKLRAVMSILKGDVKNVINNFHIELHATSLDDLVEDEIAAKIKKAGGADYSFNTTSN
notes: Cloned in pET28b between NcoI and XhoI; also called EhCoWT; WT EhCoactosin; source: E. coli BL21 (DE3), purified (Nickel-NTA, Superdex 75 gel filtration)
Take B2: the “fold of the level of binding of EhCaBP1” value was found to be 2 fold.
